The values below come from patent US20190233507A1 (CORNELL UNIVERSITY, published 2019).

The target of this experiment is β-galactosidase (UniProt P00722 2-1024 = β-galactosidase, limits assumed). The experiment in a line: ELISA, plate coated with 1 µg β-gal per well, anti-FLAG-HRP detection. From the text:
FIGS. 1A-D illustrate ubiquibody expression and binding. FIG. 1A is a schematic depiction of pET28a constructs used to express ubiquibodies (“uAb”) in E. coli, which includes single chain Fv antibody fragment (“scFv”), GSGSG linker (“˜”), human C-terminus of Hsc70-interacting protein (“CHIP”) without the N-terminal TPR domain (“[…]”), a FLAG-tag (“F”) and a 6×His-tag (“H6”). FIG. 1B is a western blot of the soluble fractions isolated from BL21(DE3) E. coli cells expressing wild-type human CHIP, inactivated CHIPH260Q, CHIPΔTPR, scFv13R4, scFv13R4-uAb, scFv13-uAb and scFvD10-uAb. An equivalent amount of total protein was loaded in each lane and expression was assayed using anti-FLAG-HRP. FIG. 1C is a graph showing ELISA results where a plate was coated with 1 μg β-gal per well and incubated with 160 ng of purified protein per well. Samples were performed in triplicate and error bars represent the standard deviation of the mean. […]
Briefly, ELISAs were performed using a 96-well plate coated with antigen (β-gal, gpD or Hsp70) at a concentration of 10 μg/mL (1 μg of antigen per well) and incubated overnight at 4° C. […] The amount of bound anti-flag-HRP was determined by using SigmaFAST™ o-phenylenediamine dihydrochloride (OPD) tablets for detection of peroxidase activity at 492 nm.
In general terms: In an ELISA, binding on a coated surface is turned into a signal by an enzyme label.

β-galactosidase, sequence (P00722 2-1024 limits assumed): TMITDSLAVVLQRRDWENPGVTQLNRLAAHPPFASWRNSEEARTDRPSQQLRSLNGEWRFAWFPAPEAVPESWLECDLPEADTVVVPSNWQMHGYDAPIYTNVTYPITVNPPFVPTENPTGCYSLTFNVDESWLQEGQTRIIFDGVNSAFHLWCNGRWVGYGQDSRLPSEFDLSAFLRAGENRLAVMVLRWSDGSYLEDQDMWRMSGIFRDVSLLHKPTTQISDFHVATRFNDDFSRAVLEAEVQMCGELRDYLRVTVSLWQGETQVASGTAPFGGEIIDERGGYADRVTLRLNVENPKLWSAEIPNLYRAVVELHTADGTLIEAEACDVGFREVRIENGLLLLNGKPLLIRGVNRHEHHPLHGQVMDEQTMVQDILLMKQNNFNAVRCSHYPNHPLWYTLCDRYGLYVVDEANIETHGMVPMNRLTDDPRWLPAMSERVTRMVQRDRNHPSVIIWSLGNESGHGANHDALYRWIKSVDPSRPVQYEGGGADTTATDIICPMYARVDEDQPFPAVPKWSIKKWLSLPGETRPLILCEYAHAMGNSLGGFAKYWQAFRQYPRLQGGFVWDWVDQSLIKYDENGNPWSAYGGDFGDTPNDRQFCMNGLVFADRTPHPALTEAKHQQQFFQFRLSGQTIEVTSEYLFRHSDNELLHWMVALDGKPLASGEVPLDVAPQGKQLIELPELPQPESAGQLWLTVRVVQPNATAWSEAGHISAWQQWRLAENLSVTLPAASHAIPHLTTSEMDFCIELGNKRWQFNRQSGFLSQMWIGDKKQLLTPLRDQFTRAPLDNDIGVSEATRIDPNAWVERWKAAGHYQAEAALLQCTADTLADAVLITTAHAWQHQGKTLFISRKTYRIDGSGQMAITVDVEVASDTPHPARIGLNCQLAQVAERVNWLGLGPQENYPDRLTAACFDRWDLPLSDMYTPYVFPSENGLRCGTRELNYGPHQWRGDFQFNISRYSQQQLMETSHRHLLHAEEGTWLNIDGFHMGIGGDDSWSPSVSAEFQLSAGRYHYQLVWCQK

B1: CHIPΔTPR (Construct 3: hCHIPdTPR-FLAGtag-His6tag) (enzyme)
chain: MGRLNFGDDIPSALRIAKKKRWNSIEERRIHQESELHSYLSRLIAAERERELEECQRNHEGDEDDSHVRAQQACIEAKHDKYMADMDELFSQVDEKRKKRDIPDYLCGKISFELMREPCITPSGITYDRKDIEEHLQRVGHFDPVTRSPLTQEQLIPNLAMKEVIDAFISENGWVEDYVDGADYKDDDDKGHHHHHH
notes: Control protein, purified from E. coli
On to B1, for which the binding result is listed as “no binding (tested: 160 ng of purified protein per well)”.
